This is an account of results in the supplement of paper PMC10724198.

± gives the standard deviation of the averaged measurements.
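Also: PSI is a weighted mean of sequencing reads over stability bins, variants kept only with over 10 reads, mCherry proximal and sfGFP distal, peptide attached via GGGS linker.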

The series deals with Saccharomyces cerevisiae. Put plainly: protein stability index of tFT-peptide fusion (C-terminal peptide) (PSI (0-1 scale)); higher = more stable (slower turnover). As to conditions: genetic background: wild type; temperature: 30 C.
As to SLPDSLPRPPPS, the protein stability index is 0.656 ± 0.072.
Regarding SLPFSPSFLSSF, the protein stability index was 0.67 ± 0.015.
In turn, SLPLIPCPSPPL showed a protein stability index of 0.751 ± 0.065.
Under SLPLPNTPVPPI stands 0.723 ± 0.081; under SLPPHPAPPPAA, 0.757 ± 0.014.
Under SLPPLDTPPSSC stands 0.73 ± 0.14; under SLPPPSSPPPPL, 0.692 ± 0.089.
Under SLPPSRSPSPTL stands 0.665 ± 0.13; under SLPRPPRPPQSH, 0.677 ± 0.038; under SLQPRRGQPVTG, 0.711 ± 0.0078.
In the case of SLQRLFGRGGMV, the protein stability index came to 0.643 ± 0.1.
SLRICGAFPRTF displayed a protein stability index of 0.705 ± 0.0092.
SLRLFVPVYPPP gave a protein stability index of 0.576 ± 0.078.
SLRRPPPRSRNG returned a protein stability index of 0.654 ± 0.048.
Under SLSIFTSFLVLF stands 0.598 ± 0.021; under SLSLFYFRFFPF, 0.661 ± 0.05.
Under SLSPPSSPLPPP stands 0.703 ± 0.053.
Under SLSRSFCRAHRS stands 0.722 ± 0.047; under SLSVPPRPSSPP, 0.624 ± 0.017; under SLVAFAKMANFV, 0.633 ± 0.044.
In turn, SLWLRLAIPSRY yielded a protein stability index of 0.68862 ± 0.00061.
Under SMASQLSQRGSD stands 0.641 ± 0.076; under SMFRNSWRKNKS, 0.602 ± 0.012.
Under SMRFLGIKLKKY stands 0.648 ± 0.023; under SMSEYGLLTMLE, 0.669 ± 0.011.
Under SNERWCGCGLLW stands 0.764 ± 0.0097.
SNIKEYKSINGR registered a protein stability index of 0.666 ± 0.02.
SNKDLELVSTVC displayed a protein stability index of 0.658 ± 0.002.
Under SNLPVSSLPSLS stands 0.6818 ± 0.0048.
As to SNLRSPFPSLPL, the protein stability index worked out at 0.714 ± 0.022.
Under SNPGGYCPQGVP stands 0.731 ± 0.024.
In turn, SNRRSSRSLYYM had a protein stability index of 0.698 ± 0.033.
Under SNVRSRGAGISM stands 0.729 ± 0.087; under SPAASPVPLHPR, 0.603 ± 0.15; under SPAGGPRGGEGV, 0.678 ± 0.075.
As to SPAGGPSGGEGV, the protein stability index came out at 0.674 ± 0.062.
In turn, SPARPPFPPPPL returned a protein stability index of 0.72 ± 0.029.
Under SPASIVPTLELA stands 0.638 ± 0.024; under SPCARPPPFPAR, 0.724 ± 0.034; under SPCLLPPPRSSP, 0.737 ± 0.027.
SPCRSPPPDLPQ gave a protein stability index of 0.645 ± 0.1.
In turn, SPFLTPPPPRPA yielded a protein stability index of 0.682 ± 0.024.
Under SPFPPLPSRPPP stands 0.676 ± 0.0097.
Regarding SPFSPTAPPPPP, the protein stability index was 0.718 ± 0.017.
Under SPHPLLSSPPPA stands 0.686 ± 0.075; under SPIIVCLFDLGF, 0.654 ± 0.037.
SPLLFLLPPAAP came in with a protein stability index of 0.692 ± 0.062.
SPLLPFPLPPSI returned a protein stability index of 0.718 ± 0.018.
Under SPLPADSHPLPP stands 0.667 ± 0.015.
Under SPLPPPLPPFPP stands 0.6171 ± 0.0056; under SPLPRPHRGPPP, 0.58 ± 0.054.
For the sequence SPMELEHSSAVP, the protein stability index was 0.6605 ± 0.0046.
Under SPPAALLPLFLR stands 0.676 ± 0.051.
Under SPPAPLPPPLPR stands 0.648 ± 0.025; under SPPFLPPLITFP, 0.681 ± 0.023.
With SPPLPPLGFNPP, the protein stability index is 0.6414 ± 0.0025.
Under SPPPARLLPPPS stands 0.723 ± 0.12; under SPPPLPHPPAAS, 0.698 ± 0.023; under SPPPLPPPPPSP, 0.68 ± 0.036.
Under SPPPPLTSLVPP stands 0.688 ± 0.075; under SPPPPPLPPAYL, 0.681 ± 0.012; under SPPPPPLPPPHP, 0.6564 ± 0.0035.
SPPPPQEADYVV showed a protein stability index of 0.62 ± 0.026.
The sequence SPPPPRAPTPPP displayed a protein stability index of 0.698 ± 0.035.
Under SPPPPSRPTLPP stands 0.593 ± 0.011; under SPPPRSPRPFPG, 0.6757 ± 0.0012; under SPPPSPAPPPPP, 0.684 ± 0.083.
Under SPPPSSSPPPSP stands 0.612 ± 0.03; under SPPPTPPGLLLL, 0.694 ± 0.012.
Turning to SPPPTSQHSGPP, the protein stability index turned out to be 0.657 ± 0.042.
For SPPRATVRPTSP, the protein stability index came out at 0.824 ± 0.078.
Sequence SPPRPSSPRASP had a protein stability index of 0.664 ± 0.074.
Under SPPSFLPLPLPS stands 0.675 ± 0.033; under SPPSHPHRPTFP, 0.753 ± 0.28; under SPPSPLSLPLPS, 0.707 ± 0.014.
Under SPPTEPFPDPTH stands 0.6628 ± 0.0053; under SPQRAHLHHHPT, 0.654 ± 0.026; under SPRISSCSPFDS, 0.726 ± 0.036.
Under SPRPSVLPPLSL stands 0.734 ± 0.011; under SPRVKEVSREIR, 0.689 ± 0.045.
